Measurements from patent publication US7101851 (dated 2006).
Bridges are numbered along the chain shown (N, C = ends). Where no end group is shown, it is not given here. [ ]: non-standard residue; d: D form. Ava = NCCCCC(=O)O

T1: alpha subunit of the human FcεRI receptor (IgE high affinity receptor), expressed on Chinese hamster ovary … (human, UniProt P12319 26-257)
T1 construct: whole, on cells; also called CHO FcεRI+ cells; FcεRIα
T1 sequence (looked up): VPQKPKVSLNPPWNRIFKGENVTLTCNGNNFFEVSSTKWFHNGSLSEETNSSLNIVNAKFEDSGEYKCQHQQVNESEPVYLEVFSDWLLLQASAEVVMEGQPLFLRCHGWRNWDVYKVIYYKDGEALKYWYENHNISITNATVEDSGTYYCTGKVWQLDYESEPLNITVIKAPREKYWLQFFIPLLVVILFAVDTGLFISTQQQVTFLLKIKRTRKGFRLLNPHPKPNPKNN

B1: IGE184 (peptide)
peptide: VQCPHFCYDYELCPDVCYV-NH2
modifications: disulfide 7-13, 3-17; N-terminus assumed
SMILES: CC(C)C[C@@H]1NC(=O)[C@H](CCC(=O)O)NC(=O)[C@H](Cc2ccc(O)cc2)NC(=O)[C@H](CC(=O)O)NC(=O)[C@H](Cc2ccc(O)cc2)NC(=O)[C@@H]2CSSC[C@H](NC1=O)C(=O)N1CCC[C@H]1C(=O)N[C@@H](CC(=O)O)C(=O)N[C@@H](C(C)C)C(=O)N[C@H](C(=O)N[C@@H](Cc1ccc(O)cc1)C(=O)N[C@H](C(N)=O)C(C)C)CSSC[C@H](NC(=O)[C@H](CCC(N)=O)NC(=O)[C@@H](N)C(C)C)C(=O)N1CCC[C@H]1C(=O)N[C@@H](Cc1c[nH]cn1)C(=O)N[C@@H](Cc1ccccc1)C(=O)N2
B2: IGE185 (peptide)
peptide: VQCPHFCYAEPLCPDVCYV-NH2
modifications: disulfide 7-13, 3-17; N-terminus assumed
SMILES: CC(C)C[C@@H]1NC(=O)[C@@H]2CCCN2C(=O)[C@H](CCC(=O)O)NC(=O)[C@H](C)NC(=O)[C@H](Cc2ccc(O)cc2)NC(=O)[C@@H]2CSSC[C@H](NC1=O)C(=O)N1CCC[C@H]1C(=O)N[C@@H](CC(=O)O)C(=O)N[C@@H](C(C)C)C(=O)N[C@H](C(=O)N[C@@H](Cc1ccc(O)cc1)C(=O)N[C@H](C(N)=O)C(C)C)CSSC[C@H](NC(=O)[C@H](CCC(N)=O)NC(=O)[C@@H](N)C(C)C)C(=O)N1CCC[C@H]1C(=O)N[C@@H](Cc1c[nH]cn1)C(=O)N[C@@H](Cc1ccccc1)C(=O)N2
B3: IGE199 (peptide)
peptide: VQCPDFCY[Ava]LCPDVCYV-NH2
modifications: disulfide (positions not given here); not fully specified (bridges); printed as VQCPDFCYavaLCPDVCYV-nh2
B4: IGE198 (peptide)
peptide: VQCPHFCY[Ava]LCPDVCYV-NH2
modifications: disulfide (positions not given here); not fully specified (bridges); printed as VQCPHFCYavaLCPDVCYV-nh2
B5: IGE187 (peptide)
peptide: VQCPHFCYE[Ava]ELCPDVCYV-NH2
modifications: disulfide (positions not given here); not fully specified (bridges); printed as VQCPHFCYEavaELCPDVCYV-nh2
B6: IGE197 (peptide)
peptide: VQCPDFCYDASRLCPDVCYV-NH2
modifications: disulfide 7-14, 3-18; N-terminus assumed
SMILES: CC(C)C[C@@H]1NC(=O)[C@H](CCCNC(=N)N)NC(=O)[C@H](CO)NC(=O)[C@H](C)NC(=O)[C@H](CC(=O)O)NC(=O)[C@H](Cc2ccc(O)cc2)NC(=O)[C@@H]2CSSC[C@H](NC1=O)C(=O)N1CCC[C@H]1C(=O)N[C@@H](CC(=O)O)C(=O)N[C@@H](C(C)C)C(=O)N[C@H](C(=O)N[C@@H](Cc1ccc(O)cc1)C(=O)N[C@H](C(N)=O)C(C)C)CSSC[C@H](NC(=O)[C@H](CCC(N)=O)NC(=O)[C@@H](N)C(C)C)C(=O)N1CCC[C@H]1C(=O)N[C@@H](CC(=O)O)C(=O)N[C@@H](Cc1ccccc1)C(=O)N2

Target: T1, alpha subunit of the human FcεRI …
Assay: inhibition of 125I-IgE binding to CHO cells expressing human FcεRI alpha; competitor IgE
Procedure: To determine the ability of peptides to inhibit IgE binding to FcεRI, a cell-based binding assay was used with radiolabeled IgE. Chinese hamster ovary cells expressing the alpha subunit of the human FcεRI receptor were cultured overnight in Falcon 96 well microtiter plates at a concentration of 5 ×10^4 cells per well. The following day the cells were rinsed three times with PBS and then once with F12/DMEM. Peptide stocks were reconstituted in 100 mM Hepes buffered water, pH 7.2, at a concentration of 5 mg/mL. Working concentrations of the peptide were diluted in assay buffer (see below). 75 uL of a desired concentration of peptide was added to the top row of a separate 96 well microtiter plate and serially diluted 1:3 in 50 uL of the assay buffer (F12/DMEM, 1% BSA, 0.05% NaN_3 and 0.025 mM Hepes pH 7.2). Starting concentrations ranged from 50–500 uM. Next, 50 uL of the diluted peptide was transferred to the 96 microtiter well plate containing a monolayer of CHO FcεRI+ cells. […] Cells were […]

Binder	IC50 [nM]
B1	110
VQCPHFCYELDYEADRLCPDVCYV-NH2 (disulfide (positions not given here); also: two disulfides, pairing not settled) [IGE188]	980
B2	76
B3	6670
B4	7800
B5	90
VQCPHFCYEL[Ava]ELCPDVCYV-NH2 (disulfide 7-14, 3-18) [IGE186]	180
B6	120
VQCPHFCYELDYEAGDERLCPDVCYV-NH2 (disulfide (positions not given here); also: two disulfides, pairing not settled) [IGE189]	150
